# The nanobody polyreactivity screen of Harvey et al. (2022)
# Test: yeast display, Sf9 membrane polyspecificity reagent, FACS + sequencing; frameworks hold sequencing errors
# Method in brief: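 Using colony PCR, genes from sorted yeast display clones were amplified, then sequenced on MiSeq at 2 × 250 and filtered by CDR length. The clones had been stained with 10% biotinylated, detergent-solubilized Sf9 membrane reagent for 1 hour at 4 °C and sorted by FACS into low and high (top ~1%) gates on anti-HA and streptavidin fluorescence. Polyreactivity labels come from the gate of origin.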
row,Sequence,polyreactivity (PSR sort gate)
1,QVQLQESSGGLVQAGGSLRMSCAASGTIFHFHIMGWYRQAPGKVREFVAAISYGTSTYYADSVKGRFTISRDNAKNTVYLLMNRQKPEDTEVYYCAVYEYLEVYCWYWGQGTQGTVSS,low polyreactivity
2,QVQLQESVGGLVQAGGSLRLSCAASGNIFPTDRMGWYRQAPGKELEFVATISHGGSTNYADSVKGRFTISRDNAKNTVYLQMNSLKPEDTAVFYCAVWSLGRWRHYYWGQGTQVTVSS,low polyreactivity
3,QVQLQESVGGLVQAGGSLRLSCAASGYISSWYPMGWYRQAPGKEREFVATIAPVATTYYADSVKGRFTISRDYAKNSVYLQMNSLKPEDTAVYYCAAGPENNDFYSYWGQGTQVTVSS,low polyreactivity
4,QVQLQESVGGLVQAGRSLRLSCAASGYISHADEMGWYRQAPGKEHELVASISNGGSTNYADSVKGRFTISRDNANNTVYLQMNSLKSVDTAVYFCAAWTGQVDIHYYWGQGTQVTVSS,low polyreactivity
5,QVQLQESVGSLVQAGGSLRLSCAASGSISILQYMGWYRQAHGKELELVAGINWGATTYYADSVKGRLTTSRDYAKKTVYLQMNSLKPEDTAVYYCAVPTFYSYPVLYWGQGTQVTVSS,low polyreactivity
6,QVQLQESVVCLVQALGSLRLSCAASGNISDYYDMGWYGHAPGKERKFVAGIDFGAITNYADSVKGRFTISRDNAKNTEYMQMSSLKPEDTAVYYCAAGVYDWYAYDYWGQGTQVTVSS,high polyreactivity
7,QVQLQETRGGLDQAGDSLRLRCAASVSTLPVYTIARYRKAAVKEREFVAANTYTGGRTYYSDSVKGRFTISRDNAKNSVYLQMKSLKPDDTAVYYCAAEYGTYFVRYFAGASYRYGYWGQGTQVTVSS,low polyreactivity
8,QVQLRESGAGGRQPAPELRGERQYFYWSADGLVSQAPGKEREFVAGIDRGTITNYADSVRGRFTISRDNAKKTVYLQMNSLKPEDTAVYYCAVPAYGDPSSYYWGQGTHVTVSS,high polyreactivity
9,QVQLVASGGGLVQAGGSLRLSCAASGGTFFYNAKGWYRQAPGKERELVAAINGGTSTNYADSVKGRFTISRDNAKNTDYLQRNSLKPEDTAVYYCAAVYRRLGRSDWYDYWGQGTQVTVSS,low polyreactivity
10,QVQLVASGGGLVQAGGSLRLSCAASGRIFDAYAMGWYRQAPGKERELVAAIDFSAGSTYYADSVKGRFTISRDNAQNTVYLQMNSLKPEDTAVYYCATRLGVLYDCWGQGTQVTVSS,low polyreactivity
11,QVQLVASGGGLVQAGGSLRLSCAASGSNFAYNGMGWYRLAPGKERELVAAMSWNGGTTYYADSVKGRFTISRDKAKKNVYLQRNSLKPEDTAVYYCATDSYYFREYDYWGQGTQVTVSS,low polyreactivity
12,QVQLVASGGGLVQAGGSLRLTCAASGSIFYAYAMGWSRQAPGKERELVASINSGGNTYYADSVKGRFTISRDNAKNTDYLQMNSLKAEATAVYYCAVDSKDNNDHWGQGTQVTVSS,low polyreactivity
13,QVQLVASGGGLVQSGGSLRLSCAASGTTFGYYAMGWYIQAPGKERELVAAITKSGGSTFYAESVKGRFTISRDNAKNTVYLQMNSLKPEDTAVYYCAARYKGQYYRQGRHDYWGQGTQVTVSS,high polyreactivity
14,QVQLVDSAGVLVQAGGSLSLICAASGRTYGIYAMGWYRQAPGKERELVADISSDASTSYAYSVKGRFTISRDNAKNTVYLQMNSLKAEDTAVYYCAADPGPYYDWGYYYWGQGTQVTVSS,low polyreactivity
15,QVQLVDSGGALVQAGGSLRLSCAASGFIFRDNAMGWYRQAPGKESELVAAISSRGGSTYYADSVKGRFTISRDYAKNSVYLQMNRLKPEDTAVYYCAIRPYKSRVQMDCWGQGTQVTVSS,high polyreactivity
16,QVQLVDSGGALVQAGGSLRLSCAASGPTFYTKTMGSYRQAPGKERELVAVISSGGGSTYYSDSVKGRFTISRDNAKNTVYLQMNSLKPEDTAVYYCAKRRGGQGNYWGQGPQVTVSS,high polyreactivity
17,QVQLVDSGGALVQAGGSLSLSCAASGGKYDSYAMGWYRQAPGKERELVASISRSGSTNYADSVKGRFTISRDNAMNTVYLQMNSLNPEDTAVYYCAASVRGIRYDYWGQGTQVTVSS,low polyreactivity
18,QVQLVDSGGCLVQAGGSLRLSCAASGFIFNFYAMGWYRQAPRQQREFVAAISTRGGSTYYADSVKGRFTISRDNAKNTVFLQMKSLKPEDTAVYYCAARRFWGSRRLDYWGQCTQVTVSS,high polyreactivity
19,QVQLVDSGGDLVQAGGSLSLSCAASGRIFVYYAMGWYRQAPGTERELVAVITSVGSTYYADSVKGRFTISRDNAKNTVYLQMNSLKPEDTAVYYCAAEWEYYGFDYWGQGTQVTVSS,low polyreactivity
20,QVQLVDSGGGIVQAGGSLRLSCAASGSTFVANAMGWYRQAPGKECEFVAAISRSGVRTYYADSVKGRFTISRDNAKNTVYLQMNSLKPEDTAVYYCAADGYWWTYSRYDYWGQGTQVTVSS,low polyreactivity
21,QVQLVDSGGGIVQAGGSLRLSCAASGSTFYSYAMGWYTQAPGKERELVAAINRDGVSTYYSDSVKGRFTISRYNAKNTVYLLMNSLKPEDTAVYYCNARHQTLRSYRYDYWGQGTQVSVSS,low polyreactivity

row,Sequence,polyreactivity (PSR sort gate)
1,QVQLVDSGGGIVQEGGSRRLSCAASGSIFVNYAMGWYRQAPGKERELVAAITLRGVSTFYADSVKGRFTISRDNAKNTVYLQMNSLKPEETAVYYCAASSLRYRAYKSLFDYWGQGTQVTVSS,low polyreactivity
2,QVQLVDSGGGLGQAVGILRLSCAASGNIFLYYAMGWYRQAPGKEREMVAAISWSGSSTYYADSVKGRFTISRYNAKNTVYLQMNSLKPEVTAVYYCNATTSSKDAFCFILVFGQGDYWGQGTQVSVSS,low polyreactivity
3,QVQLVDSGGGLVQAGASLRLSCAASGRTFYPYAMGWYRQAPAKERELDAAISSKGGITYYADSVKGRFTISRDNAKNTVYLQMNSLNPEDTAVYYCAALYTGESGYWGQGTQVSVSS,high polyreactivity
4,QVQLVDSGGGLVQAGGRLRISSAASGRISQGNAMGWYRQAPGKERELVAGISRSGGSTYYADSVKGRFTISRDNAKKTVYLQMNSLKPEDTAVYYCAARYYWRGYYWGQGTQVTVSS,high polyreactivity
5,QVQLVDSGGGLVQAGGRLRLSCAASGNNFVEYAMGWYRPAPGKERELVAAITNSGGRTHYADSVKRRFTISRDNAKNTVYLQMNSLKPEDTGVYYCAAPTKYRSRRYYWGQGTLVTVSS,high polyreactivity
6,QVQLVDSGGGLVQAGGRLRLSCAASGRTFSVNAMGWYRQAPGKERELVAAIRWRAGSTYYADSVKGRFTISRDNAKNTVYLQMNSLKPEDTAVYYCNAVTYGGRTLFPYDYWGQGTQVTVSS,high polyreactivity
7,QVQLVDSGGGLVQAGGRLRLSCAASGSTFRLYAMGWYRQAPGKERELVAAISSNGVRTYYADSVKGRFTISRDNAKNTVYLQLNSLKPEDTAVYYCAARVYPAYPRGYDYWGQGTQVTVSS,high polyreactivity
8,QVQLVDSGGGLVQAGGSHRLSCAASGRIFGDNAMGWYRQAPGKERELVAAIDWNDGNTYYADSVKGRFTISRDNANNTVYLQMNSLKPEDTAVYYCNTAGQDAEYDYWGQGTQVTVSS,low polyreactivity
9,QVQLVDSGGGLVQAGGSIRLSCSPSGGTFGLNSMGWYRQAPGQERELVADIDGRGGSTYYADSVKGRFTISRDNAKNTVYLQMNRLKPEDPAVYYCADLAPFLSVPSELDYWRQGTQVTVSS,low polyreactivity
10,QVQLVDSGGGLVQAGGSLPLSCAASGRIIAHYALGWYRQAPGKERELVAAIRRSGVSTYYADSVKGRFTISRDNANNTVYLQMHSLKPEDTAVYYCNARAYVSPYDYWGHGTQVTVSS,low polyreactivity
11,QVQLVDSGGGLVQAGGSLPLSCAASGSIFSFYAMGWYRQAPGKERELVAAISGNGGRTYYADSVKGRFTISRDNAKNSVYLQMNSLKPEDTAVYYCAAYNSPRLCYWGQGTQVTVSS,high polyreactivity
12,QVQLVDSGGGLVQAGGSLRFSCAASGSIFYSNAMGWYRQAPGKERELVAAISDGGTSTYYADSVKVRFTISRDNAKNTVYLQMNSLKPEDTAVYYCAAESTLQDWNWYKYYYWGQGTQVTVSS,low polyreactivity
13,QVQLVDSGGGLVQAGGSLRISCAASGRTFYWYAMGWSRQAPGKEREFVAAISWNVGSTYYADSVKGRFTISRDHAKNTVYLQMNSLKPEDTAVYYCAAELGYPYSTYADWYYYWGQGTQVTVSS,high polyreactivity
14,QVQLVDSGGGLVQAGGSLRLICAASGSTFARNTMGWYRQAPGKETELVAVISRGDSTYYADSVKGRFTISRDNAKNSVYLQMNSLKPEDTAVNYCIAYLRYAYPSKMDYWGQGTQVTVSS,low polyreactivity
15,QVQLVDSGGGLVQAGGSLRLICAASGSTFNYYAMGSYRQAPGKERELVAAISYSSGRTYYADSVKGRFTISRDNSKNTVYLQMNSMKPEDTAVYYCAADRYMVSSSVHSFGYWGQGTQVTVSS,high polyreactivity
16,QVQLVDSGGGLVQAGGSLRLSCAASGFIFIFYTMGWYRQAPGNERELVAAISRSGGSTYYADSVKGRFTISRDNAKNTVYLQMNSLKPEDTAVYYCAARAKLSHRWRSYYWGQGTQVTVSS,high polyreactivity
17,QVQLVDSGGGLVQAGGSLRLSCAASGFIFLNNAMGWYRQAPGKERELVAAITWSGGSTYYADSVKGRFTISRDNAKNTVYLQMNSLKPEDTAVYYCAADGWLYYGVGYWGQGTQVTVSS,low polyreactivity
18,QVQLVDSGGGLVQAGGSLRLSCAASGFIFLTYGMGWYRQAPGKERELVATITSVGSTNYADSVKGRFTISRDNAKNTVYLQMNSLKPEDTAVYYCAAVSTYHVEFDFWAEYGYWGQGTQVTVSS,low polyreactivity
19,QVQLVDSGGGLVQAGGSLRLSCAASGFIFPSYVMGWYRQAPGKERELVATISRTGGSTYYADSVKGRYTISRDNAKNTVYLQMNSLKPEYTAVYFCAAYRYSYLQLMDYWGQGTQVTVSS,high polyreactivity
20,QVQLVDSGGGLVQAGGSLRLSCAASGFIFRYYAMGWYRQAPGTERELVAAISRSGGSTYYADSVKGRFTISRDNAKNTVYLQMYSLKPEDTAVYYCNRGDVIGRQYDSAYGYWGQGTQVTVSS,high polyreactivity
